# Source: patent publication US20170325479A1
# T1: 33-mer of gliadin (alpha-2-gliadin) (aa56-88)
# T1 chain: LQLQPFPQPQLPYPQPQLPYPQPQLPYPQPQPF
# T2: H-AAPPA-NH2
# T2 chain: AAPPA
# T3: beta-casein tryptic peptide GPFPIIV
# T3 chain: GPFPIIV
# T4: beta-casein tryptic peptide HKEMPFPK
# T4 chain: HKEMPFPK
# T5: beta-lactoglobulin peptide IIAEK
# T5 chain: IIAEK
# T6: beta-lactoglobulin peptide VYVEELKPTPEGDLEILLQK
# T6 chain: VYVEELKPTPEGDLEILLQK
# B1: proline tolerant tripeptidyl peptidase TRI083 (protein)
# chain: QEPSSCKGTLVFEGETFNVFQPDCLRTEYSVDGYTPSVKSGSRIGFGSFLNESASFADQALFEKHFNIPSQNFSVVLINGGTDLPQPPSDANDGEANLDAQTILTIAHPLPITEFITAGSPPYFPDPVEPAGTPNENEPYLQYYEFLLSKSNAEIPQVITNSYGDEEQTVPRSYAVRVCNLIGLLGLRGISVLHSSGDEGVGASCVATNSTTPQFNPIFPATCPYVTSVGGTVSFNPEVAWAGSSGGFSYYFSRPWYQQEAVGTYLEKYVSAETKKYYGPYVDFSGRGFPDVAAHSVSPDYPVFQGGELTPSGGTSAASPVVAAIVALLNDARLREGKPTLGFLNPLIYLHASKGFTDITSGQSEGCNGNNTQTGSPLPGAGFIAGAHWNATKGWDPTTGFGVPNLKKLLALVRF
# Key:
# [1] = molecular target: T1, 33-mer of gliadin (alpha-2-gliadin) …
# H-AAPPA-NH2 = molecular target: T2, H-AAPPA-NH2
# [2] = molecular target: T3, beta-casein tryptic peptide GPFPIIV
# [3] = molecular target: T4, beta-casein tryptic peptide HKEMPFPK
# [4] = molecular target: T5, beta-lactoglobulin peptide IIAEK
# [5] = molecular target: T6, beta-lactoglobulin peptide …
protein,measurement,setting,value
B1,"Relative MS peak intensities of alpha-2-gliadin (intact substrate), 0 min (relative MS peak intensity)",[1],100
same,"Relative MS peak intensities of alpha-2-gliadin (intact substrate), 1 min (relative MS peak intensity)",[1],10
same,"Relative MS peak intensities of alpha-2-gliadin (intact substrate), 3 min (relative MS peak intensity)",[1],0
same,"Relative MS peak intensities of alpha-2-gliadin (intact substrate), 5 min (relative MS peak intensity)",[1],0
same,"Relative MS peak intensities of alpha-2-gliadin (intact substrate), 10 min (relative MS peak intensity)",[1],0
same,"Relative MS peak intensities of alpha-2-gliadin (intact substrate), 15 min (relative MS peak intensity)",[1],0
same,"Relative MS peak intensities of alpha-2-gliadin (intact substrate), 30 min (relative MS peak intensity)",[1],0
same,hydrolysis of substrate followed by LC-MS,[1],proline tolerant tripeptidyl peptidase was found to cleave the substrate alpha-2-gliadin consecutively into tri-peptides irrespective of a high proline content
same,digestion measured with LC-MS,Bradykinin,The proline tolerant tripeptidyl peptidase efficiently digests the bradykinin peptide having the amino acid sequence RPPGFSPFR (see FIG. 24)
same,hydrolysis of substrate followed by LC-MS and label free quantification,H-AAPPA-NH2,proline tolerant tripeptidyl peptidase over time is able to degrade the peptide AAPPA (FIG. 5) and generate the product AAP (FIG. 6)
same,digestion measured with LC-MS,[2],the proline tolerant tripeptidyl peptidase is able to efficiently digest this peptide with proline in the P1′ position and in the P2 position
same,digestion measured with LC-MS,[3],the peptide HKEMPFPK is also efficiently digested by the proline tolerant tripeptidyl peptidase
same,digestion measured with LC-MS,[4],shows the digestion of a fragment of β-lactoglobulin (peptide IIAEK) by a proline tolerant tripeptidyl peptidase
same,digestion measured with LC-MS,[5],shows the digestion of a fragment of β-lactoglobulin (peptide VYVEELKPTPEGDLEILLQK) by a proline tolerant tripeptidyl peptidase
